Reference: the Human Domainome abundance scans (Beltran et al. 2025)

B1: Transcription elongation regulator 1-like protein, residues 448 to 504; numbered along this chain, Q5VWI1 (parent)
chain: LPLEERVTHFRDMLLERGVSAFSTWEKELHKIVFDPRYLLLNSEERKQIFEQFVKTR

Variants of: B1
Assay: abundance fitness (aPCA) (normalised: wild type 0, dead -1); higher = more abundant; growth selection in yeast, the domain comes from the species named
Conditions: Homo sapiens

Abundance fitness: each site, then its substitutions
L15: E 0.351 | W -0.406 | C -0.454 | K -0.161 | V -0.207
I32: W -0.514 | G -0.764 | K -0.847 | V 0.086 | Y 0.058 | P -0.418 | D -0.852 | M -0.466 | S -0.916 | F -0.433 | E -0.633 | T -0.81 | R -0.538 | A -0.909 | L -0.494 | C -0.484
A21: Q -0.245 | S -0.303 | Y -0.482 | K -0.286 | T -0.399 | G -0.365 | E -0.165 | R -0.364 | C -0.202 | V -0.22 | W -0.594 | F -0.593 | P -0.114
E16: R -1.09 | I -0.976 | Y -0.882 | T -0.851 | K 0.226 | C -0.632 | G -0.868 | W -0.646 | A -0.46 | M -0.438 | S -0.797 | L -1.01 | F -0.568 | N -0.657 | V -0.666 | Q 0.176
L29: R 0.095 | Y 0.907 | M 0.377 | V -0.213 | A -0.409 | I 0.281 | T -0.253 | K 0.158 | G -0.667 | C -0.373 | S -0.452 | H 0.264 | W -0.986 | E 0.139 | P -0.722
R17: N -0.218 | H -0.02 | L -0.312 | F -0.368 | M -0.237 | I -0.853 | V -0.434 | P -0.249 | G -0.978 | C -0.151 | K 0.64 | Q -0.287 | A -0.465 | E -0.479
D12: Q -0.223 | I -0.177 | W -0.059 | G -0.381 | Y -0.112 | E 0.274 | A -0.335 | V -0.641 | C -0.578 | S -0.237 | F -0.624 | R -0.283 | N -0.26 | P -0.83 | M 0.191 | K -0.119
S20: D -0.185 | G -0.283 | R -1 | L -0.594 | C -0.169 | P -0.535 | A -0.369 | F -0.523 | W -0.371 | V -0.691 | E -0.563 | T -0.38 | N 0.589
K27: W -0.799 | G -0.366 | F 0.197 | R -0.295 | C -0.032 | P -0.627 | V -0.422 | H -0.612 | S -0.679 | E -0.165 | Q 0.101 | T -0.711 | A 0.073
F34: D 0.351 | V -0.085 | A 0.029 | S 0.229 | L -0.019 | I 0.199 | K -0.063 | C -0.104 | M -0.04 | R 0.099 | W -0.343 | H 0.156 | G 0.11 | T 0.245
S23: G -0.353 | R -0.811
L14: D -0.484 | A -0.701 | S -0.831 | T -0.528 | M -0.066 | K -0.905 | C -0.561 | G -0.751 | V -0.967 | W -0.093 | R -0.739 | H -0.997 | F -0.817 | P -0.251
R11: T -0.15 | K -0.204 | Y -0.259 | E -0.437 | G -0.586 | A -0.544 | F -0.248 | V -0.626 | L -0.396 | P 0.183 | C -0.5 | S -0.695 | M -0.411 | Q -0.244 | D -0.909 | W -0.365
